This is an account of results in patent US20210324028A1 (Pfizer, published 2021).

Changes are numbered by the printed parent chain. Numbers in names are those of the source.

Usually Kd stands for the constant that tells how readily two partners part at equilibrium.

For one test, the target named is T1, human IL-15Rα (human, UniProt Q13261 31-205, limits assumed).
T1 construct: also called hIL-15Rα; IL-15 receptor alpha
The experiment in a line: SPR 37C, fusion captured by anti-human Fc. The protocol: (§1) Anti-human Fc sensor chips were prepared at 25° C. with a running buffer of 10 mM HEPES, 150 mM NaCl, 0.05% (v/v) Tween-20, pH 7.4. All surfaces of a Biacore CM4 sensor chip were activated with a 1:1 (v/v) mixture of 400 mM EDC and 100 mM NHS for 7 minutes, at a flow rate of 10 μL/min. An anti-human Fc reagent (Goat anti-human IgG Fc-γ specific, SouthernBiotech, Birmingham, Ala., Catalog #2014-01) was diluted to 50 μg/mL in 10 mM sodium acetate (pH 4.5) and injected on all flow cells for 7 minutes at 20 μL/min. All flow cells were blocked with 100 mM ethylenediamine in 200 mM Borate buffer pH 8.5 for 7 minutes at 10 μL/min.
(§2) All protein interaction experiments were performed at 37° C. using a running buffer of 10 mM HEPES, 150 mM NaCl, 0.05% (v/v) Tween-20, pH 7.4, 1 mg/mL BSA. Anti-PD-1-hIL-15 fusion proteins were captured at 10 μg/mL at a flow rate of 10 μL/min for 2 minutes. Different fusion proteins were captured in flow cells 2, 3 and 4. No protein was captured onto flow cell 1 which was used as a reference surface. […] After each analyte injection, dissociation was monitored for 5 minutes followed by regeneration of all flow cells with three 60-second injections of 75 mM phosphoric acid. […] For kinetic analysis, the double-referenced sensorgrams were fit globally to a simple 1:1 Langmuir with mass transport binding model using Biacore T200 Evaluation Software version 2.0. For steady-state affinity analysis, the double-referenced equilibrium binding responses were fit with a 1:1 Langmuir steady-state model using Biacore T200 Evaluation Software version 2.0.

The target of test [1] is T2, mouse PD-1 on doxycycline-induced 32D[pRF770+pRF791] cells (mouse, UniProt Q02242 25-288).
T2 sequence (looked up): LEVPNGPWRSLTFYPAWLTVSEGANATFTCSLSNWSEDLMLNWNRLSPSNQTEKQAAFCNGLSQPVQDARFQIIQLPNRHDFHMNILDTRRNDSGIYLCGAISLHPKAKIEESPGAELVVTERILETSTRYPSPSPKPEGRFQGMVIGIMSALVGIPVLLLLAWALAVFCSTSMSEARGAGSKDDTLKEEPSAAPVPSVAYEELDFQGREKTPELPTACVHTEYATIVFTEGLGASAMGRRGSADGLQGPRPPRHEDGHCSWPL
The experiment in a line: cell-based or functional assay.

Test [2] has as its target T3, IL-15 signaling receptor on 32D[pRF770+pRF791] cells (human CD122 plus mouse CD132) (human; mouse, UniProt P14784 27-551; P34902 23-369).
T3 sequence (looked up) 1: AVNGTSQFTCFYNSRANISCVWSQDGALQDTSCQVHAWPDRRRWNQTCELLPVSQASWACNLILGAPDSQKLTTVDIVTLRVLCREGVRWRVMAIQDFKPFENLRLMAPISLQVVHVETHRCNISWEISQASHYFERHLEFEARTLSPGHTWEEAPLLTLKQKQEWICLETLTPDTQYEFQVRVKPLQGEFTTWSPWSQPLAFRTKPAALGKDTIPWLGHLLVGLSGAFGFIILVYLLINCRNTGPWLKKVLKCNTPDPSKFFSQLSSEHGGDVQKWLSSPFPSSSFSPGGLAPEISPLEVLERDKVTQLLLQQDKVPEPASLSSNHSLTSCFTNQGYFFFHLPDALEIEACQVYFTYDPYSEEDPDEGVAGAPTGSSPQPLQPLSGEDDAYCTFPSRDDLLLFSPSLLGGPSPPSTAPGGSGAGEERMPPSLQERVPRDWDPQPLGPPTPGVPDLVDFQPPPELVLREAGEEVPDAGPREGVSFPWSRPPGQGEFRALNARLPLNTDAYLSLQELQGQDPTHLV
T3 sequence (looked up) 2: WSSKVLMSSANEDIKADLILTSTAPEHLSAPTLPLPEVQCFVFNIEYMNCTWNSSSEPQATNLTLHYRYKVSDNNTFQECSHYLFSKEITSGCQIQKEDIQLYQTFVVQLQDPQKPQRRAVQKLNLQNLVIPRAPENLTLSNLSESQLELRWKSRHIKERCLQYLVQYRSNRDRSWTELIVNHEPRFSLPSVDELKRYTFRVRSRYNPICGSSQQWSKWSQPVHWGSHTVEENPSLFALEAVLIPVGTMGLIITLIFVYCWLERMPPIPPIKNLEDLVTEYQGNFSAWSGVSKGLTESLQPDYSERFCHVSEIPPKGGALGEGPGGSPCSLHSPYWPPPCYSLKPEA
The experiment in a line: cell-based or functional assay.

Test [3] addresses T4, human IL-2Rβ (human, UniProt P14784 27-240, limits assumed).
T4 construct: also called hIL-2Rβ; IL-2 receptor beta
T4 sequence (looked up): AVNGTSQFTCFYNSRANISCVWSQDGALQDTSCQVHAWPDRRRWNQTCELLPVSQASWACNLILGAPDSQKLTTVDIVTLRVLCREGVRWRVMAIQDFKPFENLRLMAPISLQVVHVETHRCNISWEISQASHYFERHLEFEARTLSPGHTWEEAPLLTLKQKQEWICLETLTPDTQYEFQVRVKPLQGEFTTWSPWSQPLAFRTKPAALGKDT
Kind of test: SPR, steady state, fusion captured. How it is done: as §1, §2

Test [4] concerns the target T4, human IL-2Rβ. The experiment in a line: SPR 37C, fusion captured by anti-human Fc. How it is done:
as §1, §2

In test [5] the target is T4, human IL-2Rβ. The experiment in a line: SPR, fusion captured. In short, it runs like this: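 Anti-PD-1–hIL-15 fusions captured at 10 μg/mL on an anti-human Fc surface, receptor injected at 37 °C in HEPES-buffered saline with 0.05% Tween-20 and 1 mg/mL BSA, pH 7.4; 5 min dissociation.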

T1 sequence (Q13261 31-205 limits assumed): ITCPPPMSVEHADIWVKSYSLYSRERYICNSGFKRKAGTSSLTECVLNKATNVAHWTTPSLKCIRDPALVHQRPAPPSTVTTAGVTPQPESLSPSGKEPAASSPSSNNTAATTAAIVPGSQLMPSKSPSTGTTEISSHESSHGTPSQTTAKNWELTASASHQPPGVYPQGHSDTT

B1: xmPD-1-hIL15 NQ-3d (other)
heavy 1: HHHHHHHHGGGGSGSGGEVQLVESGGGLVKPGGSLELSCAASGFTFSSYWMSWVRQAPEKGLEWVAAISPSGGSTYYADSVKGRFTISRDNAKNTLFLQMTSLRSEDTAMYYCAKESWGAYYDLWGQGTTVTVSSASTKGPSVFPLAPCSRSTSESTAALGCLVKDYFPEPVTVSWNSGALTSGVHTFPAVLQSSGLYSLSSVVTVPSSNFGTQTYTCNVDHKPSNTKVDKTVERKCRVRCPRCPAPPVAGPSVFLFPPKPKDTLMISRTPEVTCVVVAVSHEDPEVQFNWYVDGVEVHNAKTKPREEQFNSTFRVVSVLTVVHQDWLNGKEYKCKVSNKGLPSSIEKTISKTKGQPREPQVYTLPPSREEMTKNQVSLTCLVKGFYPSDIAVEWESNGQPENNYKTTPPMLDSDGSFFLYSRLTVDKSRWQQGNVFSCSVMHEALHNHYTQKSLSLSPGK
heavy 2: EVQLVESGGGLVKPGGSLELSCAASGFTFSSYWMSWVRQAPEKGLEWVAAISPSGGSTYYADSVKGRFTISRDNAKNTLFLQMTSLRSEDTAMYYCAKESWGAYYDLWGQGTTVTVSSASTKGPSVFPLAPCSRSTSESTAALGCLVKDYFPEPVTVSWNSGALTSGVHTFPAVLQSSGLYSLSSVVTVPSSNFGTQTYTCNVDHKPSNTKVDKTVERKCEVECPECPAPPVAGPSVFLFPPKPKDTLMISRTPEVTCVVVAVSHEDPEVQFNWYVDGVEVHNAKTKPREEQFNSTFRVVSVLTVVHQDWLNGKEYKCKVSNKGLPSSIEKTISKTKGQPREPQVYTLPPSREEMTKNQVSLTCEVKGFYPSDIAVEWESNGQPENNYKTTPPMLDSDGSFFLYSKLTVDKSRWQQGNVFSCSVMHEALHNHYTQKSLSLSPGSGGGGGTSATATPGANWVNVISDLKKIEDLIQSMHIDATLYTESDVHPSCKVTAMKCFLLQLQVISLQSGDASIHDTVENLIILANNSLSSNGNVTESGCKECEELEQKNIKEFLQSFVHIVQMFINT
light: DIVMTQSPSSLSVSAGDKVTMSCRASQGISSWLAWYQQKPWQPPKLLIYKASTLESGVPDRFTGSGSGTDFTLTISSVQAEDLAVYYCQQSYSTPWTFGGGTKLEIKGTVAAPSVFIFPPSDEQLKSGTASVVCLLNNFYPREAKVQWKVDNALQSGNSQESVTEQDSKDSTYSLSSTLTLSKADYEKHKVYACEVTHQGLSSPVTKSFNRGEC
notes: also called xmPD-1-IL15 NQ-3d; xmPD-IL15 NQ3d
Consider B1, for which the binding result with human IL-15Rα is recorded as “no binding (tested: 3000 nM)”. Moreover, in test [1], the “Fold change = EC50 (PD-1(low))/EC50 (PD-1+)” value turned out to be 163 fold and the “pSTAT5 EC50 on PD-1+ 32D reporter cells” value was 0.0229 nM. Moreover, in test [2], the “pSTAT5 EC50 on PD-1(low) 32D reporter cells” value stood at 3.73 nM. The molecule also came in with a Kd with human IL-2Rβ [3] of 446 nM.

B2: xmPD-1-hIL15 V49R/E46G/E64Q/D30N/N4K (other)
heavy 1: B1 heavy 1
heavy 2: B1 heavy 2 with N462K, D488N, Q504G, V507R, Q511E, E522Q, Q551E
light: B1 light
notes: not restated for this mutant; also called xmPD1-hIL15_V49R-E46G-N4K-E64Q-D30N
Turning to B2, the binding result with human IL-15Rα and in the test with human IL-2Rβ [4] was “no binding (tested: 3000 nM)” throughout.

B3: xmPD-1-hIL15 V49R/E46G/E64Q/D30N/N4K/M109A (other)
heavy 1: B1 heavy 1
heavy 2: B1 heavy 2 with N462K, D488N, Q504G, V507R, Q511E, E522Q, Q551E, M567A
light: B1 light
notes: not restated for this mutant; also called xmPD1-hIL15_V49R-E46G-E64Q-N4K-D30N-M109A; xmPD-1-hIL15 VS49R/E46G/E64Q/D30N/N4K/M109A
B3: the binding result in the test with human IL-15Rα and with human IL-2Rβ [4] was “no binding (tested: 3000 nM)” throughout.

B4: xmPD-1-hIL15 V49R/E46G/E64Q/D30N/I68S (other)
heavy 1: B1 heavy 1
heavy 2: B1 heavy 2 with D488N, Q504G, V507R, Q511E, E522Q, I526S, Q551E
light: B1 light
notes: not restated for this mutant; also called xmPD1-hIL15_V49R-E46G-E64Q-I68S-D30N
For the molecule B4, the binding result in the test with human IL-15Rα and with human IL-2Rβ [4] was “no binding (tested: 3000 nM)” throughout.

B5: xmPD-1-hIL15 V49R/E46G/E64Q/D30N/I68S/M109A (other)
heavy 1: B1 heavy 1
heavy 2: B1 heavy 2 with D488N, Q504G, V507R, Q511E, E522Q, I526S, Q551E, M567A
light: B1 light
notes: not restated for this mutant; also called xmPD1-hIL15_V49R-E46G-E64Q-I68S-D30N-M109A
For the molecule B5, the binding result with human IL-15Rα and with human IL-2Rβ [4] was “no binding (tested: 3000 nM)” throughout.

B6: xmPD-1-hIL15 V49R/E46G/E64Q/D30N (other)
heavy 1: B1 heavy 1
heavy 2: B1 heavy 2 with D488N, Q504G, V507R, Q511E, E522Q, Q551E
light: B1 light
notes: not restated for this mutant; also called xmPD-IL15 V49R/E46G/E64Q/D30N
Turning to B6, in the test with human IL-15Rα, the binding result is “no binding (tested: 3000 nM)”. In addition, in test [1], the “Fold change = EC50 (PD-1(low))/EC50 (PD-1+)” value came out at 715 fold and the “pSTAT5 EC50 on PD-1+ 32D reporter cells” value was found to be 0.137 nM. For the same molecule, the “pSTAT5 EC50 on PD-1(low) 32D reporter cells” value in test [2] was 98 nM. Moreover, in the test with human IL-2Rβ [5], the Kd was above 3000 nM.
